For 1 protein, Km results are on record in PMC12366639.

Substrate in the data set: CC=O
As to the kind of experiment: purified protein. In kind it is biochemical, Homo sapiens. As to conditions: NAD+.

B1: aldehyde dehydrogenase 2 (ALDH2) (Homo sapiens) (protein)
chain: SAAATQAVPAPNQQPEVFCNQIFINNEWHDAVSRKTFPTVNPSTGEVICQVAEGDKEDVDKAVKAARAAFQLGSPWRRMDASHRGRLLNRLADLIERDRTYLAALETLDNGKPYVISYLVDLDMVLKCLRYYAGWADKYHGKTIPIDGDFFSYTRHEPVGVCGQIIPWNFPLLMQAWKLGPALATGNVVVMKVAEQTPLTALYVANLIKEAGFPPGVVNIVPGFGPTAGAAIASHEDVDKVAFTGSTEIGRVIQVAAGSSNLKRVTLELGGKSPNIIMSDADMDWAVEQAHFALFFNQGQCCCAGSRTFVQEDIYDEFVERSVARAKSRVVGNPFDSKTEQGPQVDETQFKKILGYINTGKQEGAKLLCGGGIAADRGYFIQPTVFGDVQDGMTIAKEEIFGPVMQILKFKTIEEVVGRANNSTYGLAAAVFTKDLDKANYLSQALQAGTVWVNCYDVFGAQSPFGGYKMSGSGRELGEYGLQAYTEVKTVTVKVPQKNS
Take B1: the Michaelis-Menten constant (Km) (usually the concentration of substrate that gives half-maximal velocity) was found to be 1.8 µM.
